3 substances from US20220135655A1 can be followed below.

By Kd is commonly meant a measure of binding affinity in units of concentration.

Common to all, as to experiment: SPR
What all share (details): scFv

The target of experiment [1] is H5 (influenza A virus H5VN04 (H5N1)).
Experiment [2] shares this target. The source holds these as a separate data set.
Experiment [3] shares this target. This is another data set of the same source.
Experiment [4] concerns the target H5VN04 (influenza A virus H5VN04 (H5N1)).

For the substance F10, the results for the Kd in experiment [1], in experiment [2] and in experiment [3] were 270 nM, 1.2 nM and 0.1 nM, respectively.
As for CR6261 wt, the Kd in experiment [4] worked out at 0.34 nM.
On the same count and under the same terms, for F10 wt the value was 0.1 nM.
